# Assays:
# Cynomolgus SLC34A2 = target: T1, Cynomolgus SLC34A2 (Cynomolgus, UniProt A0A2K5UHY1 1-690); assay: FACS, cells expressing Cynomolgus SLC34A2
# T1 construct: whole, on cells; also called Cyno SLC34A2
# T1 sequence: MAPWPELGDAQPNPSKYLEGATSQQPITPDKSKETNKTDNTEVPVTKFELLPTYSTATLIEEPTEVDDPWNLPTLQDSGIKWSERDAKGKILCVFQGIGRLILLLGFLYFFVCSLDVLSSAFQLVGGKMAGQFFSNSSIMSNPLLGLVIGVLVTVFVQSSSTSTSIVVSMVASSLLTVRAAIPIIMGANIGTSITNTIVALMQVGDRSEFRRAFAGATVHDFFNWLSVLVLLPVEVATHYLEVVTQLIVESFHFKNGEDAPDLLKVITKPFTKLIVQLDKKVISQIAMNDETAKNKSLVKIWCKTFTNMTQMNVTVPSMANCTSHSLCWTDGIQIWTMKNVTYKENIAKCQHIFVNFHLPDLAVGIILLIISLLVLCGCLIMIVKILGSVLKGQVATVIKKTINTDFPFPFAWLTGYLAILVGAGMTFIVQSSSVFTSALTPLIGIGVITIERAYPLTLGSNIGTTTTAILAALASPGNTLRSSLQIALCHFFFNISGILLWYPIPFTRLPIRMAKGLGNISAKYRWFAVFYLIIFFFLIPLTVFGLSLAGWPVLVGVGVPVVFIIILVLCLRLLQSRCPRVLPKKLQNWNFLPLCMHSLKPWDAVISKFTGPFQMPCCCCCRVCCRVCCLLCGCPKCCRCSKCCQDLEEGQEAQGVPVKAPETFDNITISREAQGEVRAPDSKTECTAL
# human SLC34A2 [1] = target: T2, human SLC34A2 (human, UniProt O95436 1-690); assay: FACS, HEK293/human SLC34A2 cells
# T2 construct: whole, on cells; also called human solute carrier 34 A2; NaPi2b
# T2 sequence (looked up): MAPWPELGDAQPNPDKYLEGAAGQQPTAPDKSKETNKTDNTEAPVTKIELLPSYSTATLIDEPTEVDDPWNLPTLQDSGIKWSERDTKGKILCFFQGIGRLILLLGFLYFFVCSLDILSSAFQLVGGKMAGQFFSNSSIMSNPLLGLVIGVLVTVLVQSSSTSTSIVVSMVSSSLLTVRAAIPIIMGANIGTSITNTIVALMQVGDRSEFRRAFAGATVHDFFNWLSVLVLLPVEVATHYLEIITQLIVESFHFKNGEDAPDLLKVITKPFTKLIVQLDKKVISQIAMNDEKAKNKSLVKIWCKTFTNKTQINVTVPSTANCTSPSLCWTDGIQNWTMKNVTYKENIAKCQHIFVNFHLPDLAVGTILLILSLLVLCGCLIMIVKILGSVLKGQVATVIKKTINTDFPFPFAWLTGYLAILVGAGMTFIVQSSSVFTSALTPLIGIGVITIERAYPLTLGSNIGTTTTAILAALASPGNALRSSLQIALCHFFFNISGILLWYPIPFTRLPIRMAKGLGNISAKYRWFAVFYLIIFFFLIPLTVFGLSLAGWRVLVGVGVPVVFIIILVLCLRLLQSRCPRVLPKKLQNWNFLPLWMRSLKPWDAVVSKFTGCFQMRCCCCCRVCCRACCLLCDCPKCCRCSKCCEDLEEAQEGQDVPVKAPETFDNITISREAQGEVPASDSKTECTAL
# Procedure: (§1) Briefly, OVCAR3 cells or HEK293 cells expressing human SLC34A2 were incubated with chimeric antibodies (from 200 nM, 4 folds dilution, 8 points). After incubation at 4° C. for 60 minutes, the cells were washed with FACS buffer twice, then stained with fluorescent conjugated secondary antibody at 4° C. for 30 minutes. After that the cells were washed twice and analyzed by flow cytometry.
# human SLC34A2 [2] = target: T2, human SLC34A2; assay: cell-based or functional assay
# human SLC34A2 [3] = target: T2, human SLC34A2; assay: FACS, RMG-1 cells
# Procedure: Based on the foregoing cell-based binding results, some of the chimeric antibodies were selected for further cell based binding on human SLC34A2 expressing cells using flow cytometry. RMG-1 cells were incubated with the selected chimeric antibodies (from 200 nM, 4 folds dilution, 8 points). After incubation at 4° C. for 60 minutes, the cells were washed with FACS buffer twice, then stained with fluorescent conjugated secondary antibody at 4° C. for 30 minutes. Afterwards the cells were washed twice and analyzed by flow cytometry.
# human SLC34A2 [4] = target: T2, human SLC34A2; assay: cell-based or functional assay; remark: listed apart in the source
# human SLC34A2 [5] = target: T2, human SLC34A2; assay: FACS, OVCAR3 cells
# Procedure: In this example, cell based binding of chimeric antibodies (hIgG1) prepared from the murine antibodies on human SLC34A2 expressing cells were assessed using flow cytometry.
# as §1
# Rhesus SLC34A2 = target: T3, Rhesus SLC34A2 (Rhesus, UniProt F7HDA3 1-690); assay: FACS, HEK293/Rhesus SLC34A2 cells
# T3 construct: whole, on cells
# T3 sequence: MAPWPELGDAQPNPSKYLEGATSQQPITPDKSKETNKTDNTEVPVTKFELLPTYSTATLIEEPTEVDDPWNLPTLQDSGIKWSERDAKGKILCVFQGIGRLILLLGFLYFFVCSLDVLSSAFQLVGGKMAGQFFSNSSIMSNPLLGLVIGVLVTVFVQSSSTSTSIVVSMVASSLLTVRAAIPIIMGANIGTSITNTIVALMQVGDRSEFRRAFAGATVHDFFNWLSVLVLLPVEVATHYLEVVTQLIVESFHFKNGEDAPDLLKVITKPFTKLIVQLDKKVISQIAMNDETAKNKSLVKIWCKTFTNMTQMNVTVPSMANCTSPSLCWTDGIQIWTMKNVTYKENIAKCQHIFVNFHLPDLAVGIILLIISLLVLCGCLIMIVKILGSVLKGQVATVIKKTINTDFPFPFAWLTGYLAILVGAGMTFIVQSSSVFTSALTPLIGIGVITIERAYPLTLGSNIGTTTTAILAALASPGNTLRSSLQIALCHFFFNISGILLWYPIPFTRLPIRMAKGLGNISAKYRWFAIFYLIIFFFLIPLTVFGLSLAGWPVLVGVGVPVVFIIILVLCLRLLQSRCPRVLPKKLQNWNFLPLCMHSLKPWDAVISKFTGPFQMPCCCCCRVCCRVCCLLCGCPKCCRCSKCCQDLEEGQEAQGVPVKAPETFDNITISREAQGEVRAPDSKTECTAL
# Procedure: as §1, with “the Rhesus SLC34A2 expressing HEK293 engineering” for “OVCAR3”, “(HEK293/Rhesus_SLC34A2)” for “or HEK293 cells expressing human SLC34A2”, “Abs” for “antibodies”
EC50 (Cynomolgus SLC34A2) [nM],Top (MFI) (Cynomolgus SLC34A2),EC50 (human SLC34A2 [1]) [nM],Top (MFI) (human SLC34A2 [1]),EC50 (human SLC34A2 [3]) [nM],Top (MFI) (human SLC34A2 [3]),ADCC reporter EC50 (human SLC34A2 [4]) [nM],ADCC reporter Top (MFI) (human SLC34A2 [4]),EC50 (human SLC34A2 [5]) [nM],Top (MFI) (human SLC34A2 [5]),EC50 (Rhesus SLC34A2) [nM],Top (MFI) (Rhesus SLC34A2),Binder,cytotoxicity EC50 (human SLC34A2 [2]) [nM],cytotoxicity Inhibition % (human SLC34A2 [2]) [%]
2.81,3770,1.88,107000,4.73,9420,6.4,569000,4.27,43000,3.19,13400,"xi28G3C6B9 hIgG1 (antibody, V domains shown, chimeric, hIgG1) VH: QVQLQQPGAEVVKPGASVKMSCKASGYTFTSYIIHWVKQAPGQGLEWIGAIYPGNGDTSYSQRFKGKAKLTADKSSSTAYMQLNSLTSEDSVVYYCARGNNYGSPAWFGYWGQGTLVTVSA VL: DIVLTQSPVTLSVTPGDRVSLSCRASQSIGNFLYWYQQKSHESPRLLIKYASQSMSGIPSRFSGSGSGTDFTLSISRVETEDFGMYFCQQSNSWPVTFGAGTKLELK",0.36,86.4
5.47,3150,1.17,91300,2.58,9370,4,486000,1.57,39600,2.24,13700,"xi94B10A8 hIgG1 (antibody, V domains shown, chimeric, hIgG1) VH: QVQLQQTGAELVKPGASVKMSCKASGYTFTGYIIHWIKQRPGQGLEWIGAIYPGNGDTSYNQKIKGRATLTADKSSTTAYMQLSSLTSEDSAVYYCARGDYGNPAWFAYWGQGTLVTVSA VL: DVVLTQSPATLSVTPGDRVSLSCRASQSISNYLYWYQQKAHESPRLLIKFASQSISGIPSRFRGSGSGTDFTLSINSVETEDFGMYFCQQSNKWPLTFGAGTKLELK",0.7,97.5
68.5,1280,1.37,109000,4.33,8600,2.5,409000,3.84,40500,46,8840,"xi84F2D10 hIgG1 (antibody, V domains shown, chimeric, hIgG1) VH: QVQLQQPGAVLVKPGASVKMSCKASGYTFTSYNLHWVKQTPGQGLEWIGAIYPGNGDTSYIQKFKGKATLTADKSSSTAYMQLSSLTSEDSAVYYCARGKYGNYEGFAYWGQGTLVTVSA VL: DILLTQSPAILSVSPGERVSISCRASQSIGTSIYWYQQRRNGSPRLLIKFASESISGIPSRFSGSGSGTDFTLSINSVESEDIADYYCQQNNRWPFTFGSGTKLEIK",0.61,102
3.79,3730,2.29,47500,3.76,9500,2.1,238000,4.66,27600,2.72,14800,"xi16E5D10 hIgG1 (antibody, V domains shown, chimeric, hIgG1) VH: QVQLQQPGAELVKPGASVMMSCKASGYTFSNHNLHWLKKTPGQGLDWIGAIYPGNGDTSYNQKFKGRATLTVDKSSNTAYMQFSSLTSEDSAVFYCARGKYGNGAMDYWGQGTAVTVSS VL: DIVMTQSHKFMSTSVGDRVSITCRASQDVGTAVVWYQQKLGQSPKLLFDWASSRHTGVPDRFTGSGSGTDFTLTITDVQSEDLADYFCQQYSRQPLTFGAGTKLELK",0.78,93.1
4.93,4090,0.86,106000,7.91,9800,2.2,228000,2.75,42500,2.9,14300,"xi18G1H4 hIgG1 (antibody, V domains shown, chimeric, hIgG1) VH: QVQLQQPGAELVKPGASVRMSCKASAYTFTTYNLHWVKQTPGQGLEWIGAISPGNGVTSYNQKFRGKATLTADKSSSTAYMQLSSLTSEDSAVYYCARGYGYSVGAMDYWGQGTSVTVSS VL: DIQMTQTTSSLSASLGDRVNISCSASQGIGNFLNWYQQKPDGTVKLLIYYTSSLHSGVPPRFSGSGSGTDYSLTISNLEPEDIATYYCQQYHKLPLTFGAGTKLELK",0.36,82.7
88.3,2570,1.19,48000,1.7,9200,2.7,216000,2.12,27700,1.68,11600,"xi69B11D8 hIgG1 (antibody, V domains shown, chimeric, hIgG1) VH: EVQLQQSGPELVKPGAAVKISCKTSGYTFTDYTMHWVRQSHGKSLEWIGGIHPNNGGTGYNQKLRGKATLTVDKSSSTAYMELRSLTSDDSAVYYCARGRESDGWFTYWGQGTLVTFSA VL: DVHMTQTTSSLSASLGDRVTITCSASQGIGNSLNWYQQQPDGTVKLLIYYTSRLHSGVPSRFSGSGSGTDYSLTISNLEPEDLATYYCQQYSRFPPTFGGGTKLEIK",0.67,86.9

# — patent publication US20240301052A1 (LANOVA MEDICINES DEVELOPMENT, published 2024)
